Measured values as given in PMC2642969 (Molecular cell, 2008).
Where two headings read alike, the source gives them in different places.

T1: FLAG-dKDM4A (recombinant, Sf21) (Drosophila melanogaster, UniProt Q9V333 1-495)
T1 sequence (looked up): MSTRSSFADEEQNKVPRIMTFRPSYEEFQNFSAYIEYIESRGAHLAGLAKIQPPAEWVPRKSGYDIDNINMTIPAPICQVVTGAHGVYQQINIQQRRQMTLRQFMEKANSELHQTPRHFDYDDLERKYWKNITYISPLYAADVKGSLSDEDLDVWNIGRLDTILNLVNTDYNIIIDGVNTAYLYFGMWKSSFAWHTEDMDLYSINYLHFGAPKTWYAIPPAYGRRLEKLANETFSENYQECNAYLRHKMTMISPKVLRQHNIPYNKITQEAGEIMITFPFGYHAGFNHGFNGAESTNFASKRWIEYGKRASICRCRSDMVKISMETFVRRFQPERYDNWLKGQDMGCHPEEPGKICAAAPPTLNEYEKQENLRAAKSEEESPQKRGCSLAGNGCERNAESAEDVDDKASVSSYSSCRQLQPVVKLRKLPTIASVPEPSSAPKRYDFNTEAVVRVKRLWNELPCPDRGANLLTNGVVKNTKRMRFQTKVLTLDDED


Assays:
[1] = biological target: T1, FLAG-dKDM4A (recombinant, Sf21); assay: co-IP
[2] = biological target: T1, FLAG-dKDM4A (recombinant, Sf21); assay: co-IP; remark: listed apart in the source

| Binder | binding result [1] | binding result [2] |
| --- | --- | --- |
| HA-HP1a (recombinant, full-length) (natural protein, Drosophila melanogaster, UniProt P05205 1-206, looked up) MGKKIDNPESSAKVSDAEEEEEEYAVEKIIDRRVRKGKVEYYLKWKGYPETENTWEPENNLDCQDLIQQYEASRKDEEKSAASKKDRPSSSAKAKETQGRASSSTSTASKRKSEEPTAPSGNKSKRTTDAEQDTIPVSGSTGFDRGLEAEKILGASDNNGRLTFLIQFKGVDQAEMVPSSVANEKIPRMVIHFYEERLSWYSDNED | binds | – |
| HA-HP1a-V26M (natural protein, Drosophila melanogaster, UniProt P05205 1-206, looked up) MGKKIDNPESSAKVSDAEEEEEEYAMEKIIDRRVRKGKVEYYLKWKGYPETENTWEPENNLDCQDLIQQYEASRKDEEKSAASKKDRPSSSAKAKETQGRASSSTSTASKRKSEEPTAPSGNKSKRTTDAEQDTIPVSGSTGFDRGLEAEKILGASDNNGRLTFLIQFKGVDQAEMVPSSVANEKIPRMVIHFYEERLSWYSDNED | – | binds |
